18 sequences from the DeepSol protein solubility set can be followed below.

The data set can be described thus: soluble on expression in E. coli; label from the status in PepcDB or PDB records.
As to “MSLARANIDTDAILPKQFMKSIERTGFGVHLFDGFRYLDAGSLGMDCSRRPENPDFILNWPRYREASILLAGANFGCGSSREHAPWAIEQYGFRVLIASSFADIFRDNCFKNGLLPIVLASETMDRLFDEVSHQVGFELEVDLPRQTISCPAGWCIEFEMDSIRKAHLLEGIDEIGSTLSLSKKIGDFERARRQSHPWFFGAEGHHHHHH”, the “soluble on expression in E. coli” value is on record as “not soluble”. Turning to “MGHERDWSLVQVALTDITARKKAEAYLEYLGKHDVLTKLHNRAFYSDELNRLERSALRPVSAIVIDLNGLKEANDKLGHDAGDALLRRVGEVLNGVVTAPNHAARIGGDEFAILLPGADKQVAAAMVDTVYELLKINNQFYSSAPLSLSLGVATTEAGETMESLVRRADMNMYEQKNALEHHHHHH”, the “soluble on expression in E. coli” value was “soluble”. Turning to “MRLIMKPEHSTRGRVIFVGAGPGNPDLLTVRAREVLGSTANAVVDSTVGVGIRAVIAEHLEVPQAKLDAAEAEYERMCAAAKRRKPPRPDAPTAAEITEVSADASVDEVMAVLLPLLDEGDVIRLVQGNPLADSRALDEITAVTQVGADFQIVPGMSLPAAVPAFAGITLGDSYTKTTVSEDTNWDQLATAPLPLILQASKDDLLTIAMELKDRKLPASTPVTVTMNGTTRLQRSFDVTLKTMKSLVKQELDGTLVVTVGVSDRSTFSWWESRALFGWRVLVPRAKDQAGPMSSRIAAYGAIAQEVPTISVEPPRNPAQLERAIKGIVEGRYQWVVFTSVNAVKAVREKIVSFGLDSRAFAGVHIAAVGAKTAAAIREFGITPELIPPRKEHNAAGMVSVFPNYVEGLDPVGRVLLPRADIATDVLVDGLVNLGWEVDDVVAYRTVRAAPPSAEVRDMIKSGDFDAVCFTSASTVRNLVGIAGKPHARTIIACIGPMTAAEAEKQGLRVDVIPEVANVAALVDALAEHVEKLRAAGELPPPRKKRRARRKSKEGAV”, the “soluble on expression in E. coli” value is reported as “not soluble”.

Consider “MKTAIVTDSTAYLPKEVRERLGIRLIPLSVIFGNETYREEIDMTADEFFAKIKQHPTLPTTSQPSVGEFVDLFTAIREEGYEAVVSIHLSSGISGTYQGAVTAGTMVDGLRVYAYDSEISCMAQGFYAIEAAEMAQAGRSPEDIIARLDEMKQTLRAYFMVDDLAHLQRGGRLTGAQAFIGGLLQIKPLLRFENKVIVPFEKIRTRKKAIHRIEELFAEDAEKGVPLKAAIIHANQPDEAHRWRDELSARYPHVEFSISYFGPVIATHVGEGALGLTWYQP”, for which the “soluble on expression in E. coli” value is “soluble”.

As to “SLLGMNFAMHTTIDTKLVLFGPSENLVTEDDDARNMASKLIENGIITTACINYVKDKPAESKLREMRIVLEPVGKIISDYIKDGYVPVTF”, the “soluble on expression in E. coli” value is on record as “not soluble”. The value for “MKKGINRVVLVGTGAVGCSYAYCMINQAVAEEFVLVDVNEAKAEGEAMDLSHAVPFAPAPTRVWKGSYEDCKDADLVVITAGLPQKPGETRLDLVEKNAKIFKQIVRSIMDSGFDGIFLIATNPVDILTYVTWKESGLPKERVIGSGTTLDSARFRYMLGEYFNIGPHNIHAYIIGEHGDTELPVWSHVSVGIQKLQTLLEKDNTYNQEDLDKIFINVRDAAYHIIERKGATYYGIGMSLLRVTKAILNDENSVLTVSAYLEGQYGQKDVYIGVPAVLNRGGVREILEVELSEDEELKFDHSVQVLKETMAPVL” was “not soluble”.

Take “MGSDKIHHHHHHMQLSSRPSSLVLDHHQNKFLTPWSDPADPHILFPIQPLEQLLVQLGWPDPQAWLIHWQKRGGISLKRPFWHPSTRTDWIWGLGLPLLTLVEGCLGKSDRSLLGITGLPGCGKTSLGCWLEAAAGELGWPIKVISLDDFYWPFPQLDRSMSGNPWRVPRALPGSHDLDLLASVLDTWQSTGHLKAPMFDKALRHGRGDRDGWHLSDPKVLVIEGWILGCLPCKFAEAGQFSDQLVPPLNKLEHDYRLVVQEALNGYVPIWDRLDTLWHLKAIDPSSTRIWKANQESLMQLNRGVCLDQESFEGFVRMILASIPLTCLDGIEADVVATLTPARQLMWVGQRGYQDSSSSDSCIG”: the “soluble on expression in E. coli” value is “not soluble”. Regarding “MGHHHHHHSHMPTTSRPALDVKGGTSPAKEDANQEMSSVAYSNLAVKDRKAVAILHYPGVASNGTKASGAPTSSSGSPIGSPTTTPPTKPPSFNLHPAPHLLASMQLQKLNSQYQGMAAATPGQPGEAGPLQNWDFGAQAGGAESLSPSAGAQSPAIIDSDPVDEEVLMSLVVELGLDRANELPELWLGQNEFDFTADFPSSC”, the “soluble on expression in E. coli” value is recorded as “not soluble”.

As to “MIINKVKSLIKHGFNLAIDISADILLIFTETGRTYEYYKDQEAIYKRARKNRSLKDFKSLKVVVTTPNEETFLKLKNESKIIPLLMTYRNDDRSSMIKQAVTNLFANNIVKKGDIVVSILGIPKVTGGTDTISIFEVNEYPQILKYYDYISSIEKTKGKVINEVLNLCMELAVEGREGTPVGSIFVIGDSDRVLKMSSQLILNPFEGHESFIFDKQVKGTVKELSTIDGAFVIGEKGEVLCAGRYISCSGGNIELPLGLGARHHAAATISKYTGAIAITVSESGGVIRIFKNGEILSEIKPKKLSNTSEYSY”, the “soluble on expression in E. coli” value was “not soluble”.

For “MSLRGIRMKDYDLIVIGTGSGMNYVNSIIDSNPKMKIAVIDKDEPGGICLTRGCIPSKLLLYPAELVRDLETAPLFGIKLEIKDIEFRTIMERMRKRIGEDIEMIRQGLTENDYLDYYPETAEFISPYTLKAGDEILHSEMIFLCTGSKPAVPPVRGLEEAGYLTSDTVLGLNECPKSLAILGGSYIGAEYGHFFSAMGAEVTVIGRNQHFLPQEEPEVSELARIKMSEYMRILTNHEAIEVRKEKGGQKTVIAKDRDSGEETEVTADEILVATGRAPNNDILHPEKAGIKTDPHGWILVNEYLETSQPNIWAFGDANGKYLLKHVGNYESGIVYLNAIMQEKVKVDYHAVPHAVFSYPEIAGVGMSEKEAIEEFGEKRVIIGFKLFEDTAKGSAMETRDYFVKVILDGLEDKILGAHIIGPHASVLIHQIIPLMYTASRSAKPMMQMMDIHPALSEVVKRAFYSRLSPEHYHHVMKHLGLEDEDSVEGHHHHHH”, the “soluble on expression in E. coli” value is recorded as “soluble”. The value for “MNNNLLIIAGPTAVGKSDLSVDLAKKLNGEIISVDSMQIYKYMDIGSAKISKEEMGGIPHYLIDFVDPSKEFSVAEFKDLTTEKIKDIQSRGKLPILVGGTGLYINSIICNMNFAESDKDEEYREELEKIANEHGNEYLHEMLKDIDLESYNSIHFNNRKRVIRALETYKLTGKPFSSFKAKNSIYETPYNIYYYVLNMDRAKLYDRINKRVDIMFEKGLLEEVKNLKAMGLTDDMQSMKGIGYKEVLYYLDGKISLEQCIEMIKQGSRNYAKRQLTWFRKDPRAIFIDKDTFASEEDISSKIINDIINSMAGDPNSLEHHHHHH” was “not soluble”; that for “MGSDKIHHHHHHMIEIGKRCTLEIVKRVDFGVYLNAHEFGQVLLPNKVAPQGCEVGDSVEVFLYLDSEDMVIATTKRPKAQVGQFAYLKAVATGPYGAFLDWGLDKDLMLPFGEQHREIEVGRSYLVYVYVNSADDRIVASSKIDKFLDRTPPPYRNGQEVSLIIAGTTDLGYKAIIDNGHWGVLYKNEVYQPLKFGQRIKGFIKRVRSDDKIDLILQRGAKEELDKHATAILMKLNQAGGFLPLTDKTDAEVIYAELAMSKKAFKKSIGGLYKQQKIAIEADGIRLTE” was “not soluble”; that for “MDDAELRAVRTLISLTTRYFAVFKNAPVIMAVIDDNGKVVDANNAAAELIGEKPSGKHLRELLPAELCEKVLSTLEKALEEEKKANLRAKVSGKLLRVQLTPISADGRKLCLLTGFSVEDELSKAAREILRLAARAGDAETVIKGMAKKFGELELFSQVKVELDGLREVVREKDGEFVYEFPLRMHRKKGRVTLESRKELSSEEIDMLAETFEDVSILISTLELESKLSAEVRRTVELINELREQLKAVTLSLEILENDGLKSIVKERLGKMLQVAERLAGE” was “not soluble”.

As for “MFPSPTPPLVSPTAVIEEENDDSVREFSRTLKSRLNCAMVKLSKEHEQVALIPPPPTEKIRKGSYSNKFAAKHRRCHSLDESKKFLSSLEDSSAHAAFLKAISSKHAKSNRVDNVNVSPLRWSSHRRTQSTQENSLQEVVAIDTLLKMSSSD”, the “soluble on expression in E. coli” value is “not soluble”. The value for “MSLLTKSAENKRNRKDDSMRPGQQLTLSIDHQTDFGYFLTDGEDTILLHNSEMTEDIEDRDEVEVFIYVDQQERLAATMKIPIISADEYGWVEVVDKVEDMGVFVDVGLSKDALVATEHLPPYEDVWPQKGDKLYCMLKVTNRGRMFAKPAPEDIISELFTDASEDLMNKELTGTVYRLIASGSFVITDDGIRCFIHPSERKEEPRLGSRVTGRVIQVKEDGSVNLSLLPRKQDAMSVDAECILTYMRMRNGAMPYSDKSQPDDIRERFNMSKAAFKRALGHLMKNGKVYQENGWTYEKKEGGSHHHHHH” was “soluble”; that for “MTETKDKQLSRIVLKGFKSIAKCDLEISRVNILIGANGAGKSNFIGFFRMVGQLVEENLQVFVSRQGSPDALLHFGRKTTEHLEFQLYFGNNGYFATLEPTQDNRLMFARESFWWNMSGEHEIGRGHFETKVLTSTRTGIDEYVLSAMQQWRVYHFHDTSESAYIKQPHGINDNAYLRPDARNLASFLYLLRNSYPASYQRIVKTIRLVAPFFGDFYLRPAPQNKEVIELEWFERGQDIPFKAYLLSDGTLRFMCLATVFLQPEDLQPETILVDEPELGLHPYAITVLASLMRTASKQVIVSTQSIELLNQFEAKDVIVVDRSEGSSYLRRLNQGDRIHFTGYSLLEHHHHHH” was “soluble”.

Take “MLKYNVRGENIEVTDALRSYVEKRLNKLEKYFELNQDVIAHVNLRVYRDHSAKVEVTIPLPYLVLRAEETTDDMYRSIDFVSEKLERQIRKYKTRVNRKSREKGLQDFFVEQPEEEKKPSEFDIVRNKRVSLKPMDPEEAILQMDMLEHDFFVFEDAETNGTSVVYRRNDGRYGLIETNELEHHHHHH”: the “soluble on expression in E. coli” value is “soluble”. With “MGTSGCTVDTSRRDKVRMALPHAELEQARMDNLTRHVAQNFLREPQVVGEPNDSGVAVSQLLFEKSDTVVISDREIHHQLRAASIAVVAHAPMLLMDDTDRDAVQAEIGRLGARYILAIGDVGLPKTTGNVKVIPDSGSLTALGKLTSLQFRTQRIDVSNALSAVSRLDGTHPMWLLTNRQEKVQSSPSDGEVSAFPVQSRRDAGAAPQVIATQESGIAAVATARSYGASVTVMRFPDPRLNVESMRAVAGLSDQPLIALGSQFGTSQQLSERIELGERAPLALPHKTGLVFALRTLRARYLNDSDVSEHVDIPYGANYVRTIAHPLSSQDQQDWKAWADAINAQDGFVFIEIDAVHRDADEILDSVEEIVSQPSIGVILRNAAQVCARSPQSRQRIADRLMHWNSEVINHNGDQLGVVLEGVDILRGGVCGISPQELMGLGLAILPARGEHLGGDATVNSQLYWDDWFVAERESFQPTGTLRSPRLGLIIRD”, the “soluble on expression in E. coli” value was “not soluble”.
